# Reference: PMC12857291
# Key:
# [1] = target: T1, MeCP2-MBD WT (UniProt P51608 80-164); experiment: EMSA; no peptide; EMSA: 0.5 uM DNA, 0-20 uM protein, 50 mM HEPES pH 7.5, 100 mM NaCl, 1 h at 4 C; 6% native PAGE, 1X TBE, 80 V, 4 C; SYBR Gold; n=3; details: protein: recombinant; tags: C-terminal 6xHis; label: none (SYBR Gold stain); blunt
# [2] = target: T1, MeCP2-MBD WT; experiment: EMSA; 20 uM histone H3(15-36)K27me3 peptide; EMSA: 0.5 uM DNA, 0-20 uM protein, 50 mM HEPES pH 7.5, 100 mM NaCl, 1 h at 4 C; 6% native PAGE, 1X TBE, 80 V, 4 C; SYBR Gold; n=3; details: protein: recombinant; tags: C-terminal 6xHis; label: none (SYBR Gold stain); blunt
# T1 sequence (P51608 80-164): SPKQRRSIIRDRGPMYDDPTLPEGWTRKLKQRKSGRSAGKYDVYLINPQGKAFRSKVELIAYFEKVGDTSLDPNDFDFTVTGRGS
binder,measurement,setting,value
"BDNF promoter duplex mC/mC (dsDNA, 5-methyl-dC at position 10 of the top strand and position 15 of the bottom strand (symmetric mCpG)) DNA 1: GCCCTGGAACGGAACTCTTCTGGCC DNA 2: GGCCAGAAGAGTTCCGTTCCAGGGC",Kd,[1],1.2 ± 0.1 µM
same,Kd,[2],1.3 ± 0.1 µM
